Key:
LIGHT (TNFL14) = assay: SPR
APRIL (TNFL13) = assay: SPR

Purified recombinant EV CrmD protein (receptor)
Kd (LIGHT (TNFL14)): 0.14 µM | Kd (APRIL (TNFL13)): 110 µM
